Two molecules from patent US20070298041A1 (published 2007) can be followed below.

Assay [1] concerns the target T1, mouse TNFR1 (biotinylated, immobilized on SPR chip) (mouse (Mus musculus), UniProt P25118 30-212, biotinylated (site not stated)).
T1 construct: also called murine TNFR1; mTNFR1
T1 sequence: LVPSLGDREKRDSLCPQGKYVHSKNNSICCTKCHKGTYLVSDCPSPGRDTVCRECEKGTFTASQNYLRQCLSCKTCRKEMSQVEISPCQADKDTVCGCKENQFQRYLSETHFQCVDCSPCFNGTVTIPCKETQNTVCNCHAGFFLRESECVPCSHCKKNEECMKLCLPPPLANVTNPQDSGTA
In words: SPR (BIACORE 3000), biotinylated mouse TNFR1 on streptavidin chip, competition with chimeric TNFR1 proteins. As for the experimental part: (§1) If the dAb is pre-incubated and equilibrated with a chimeric molecule that comprises the domain(s) of TNFR1 that the particular dAb binds, then flow of this mixture over the TNFR1 surface will produce a smaller SPR signal relative to the dAb alone.
(§2) The choice of TNFR1 surface is determined by the species specificity of the anti-TNFR1 dAb to be tested. Therefore anti-human TNFR1 dAbs were evaluated using a surface coated with human TNFR1 and anti-mouse TNFR1 dAbs were evaluated using a chip coated with mouse TNFR1.
(§3) Biotinylated TNFR1 was diluted in the appropriate SPR buffer and run across a streptavidin (SA) sensor chip in a BIACORE 3000 SPR instrument (Biacore International AB, Uppsala, Sweden). A low flow-rate (5-10 μl/minute) was used in order to maximise the contact time between the biotinylated TNFR1 and the streptavidin surface. Flow continued until the streptavidin surface was saturated with biotinylated material, in order to generate a chip with maximal TNFR1 surface.
(Surface plasmon resonance follows binding to a sensor surface in real time, without labels.)

The target of assay [2] is T2, human TNFR1 (biotinylated, immobilized on SPR chip) (human (Homo sapiens), UniProt P19438 30-211, biotinylated (site not stated)).
T2 construct: also called hTNFR1
T2 sequence: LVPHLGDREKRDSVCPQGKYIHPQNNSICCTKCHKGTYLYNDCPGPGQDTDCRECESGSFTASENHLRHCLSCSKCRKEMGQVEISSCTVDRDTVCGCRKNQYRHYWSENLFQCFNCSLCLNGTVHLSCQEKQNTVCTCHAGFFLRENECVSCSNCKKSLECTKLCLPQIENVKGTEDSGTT
In words: SPR (BIACORE 3000), biotinylated human TNFR1 on streptavidin chip, competition with chimeric TNFR1 proteins. As for the experimental part: as §1, §2, §3

B1: TAR2m-21-23 (other)
VH: EVQLLESGGGLVQPGGSLRLSCAASGFTFNRYSMGWLRQAPGKGLEWVSRIDSYGRGTYYEDPVKGRFSISRDNSKNTLYLQMNSLRAEDTAVYYCAKISQFGSNAFDYWGQGTQVTVSS
notes: Domain antibody (dAb), a single immunoglobulin VH variable domain; also called anti-mouse TNFR1 dAb
For B1, the binding result in assay [1] was “binds”.

B2: TAR2h-205 (other)
VH: EVQLLESGGGLVQPGGSLRLSCAASGFTFVKYSMGWVRQAPGKGLEWVSQISNTGGHTYYADSVKGRFTISRDNSKNTLYLQMNSLRAEDTAVYYCAKYTGRWEPFDYWGQGTLVTVSS
notes: Domain antibody (dAb), a single immunoglobulin VH variable domain; also called anti-human TNFR1 dAb
For the molecule B2, the binding result in assay [2] is on record as “binds”.
